From PMC6237807

Key:
[1] = system: H-NS (15 kDa) (Vibrio cholerae A1552 (A1552-TntfoX)); experiment: DNA affinity pull-down, LC-MS/MS
[2] = system: HupA, HU-alpha (9 kDa) (Vibrio cholerae A1552 (A1552-TntfoX)); experiment: DNA affinity pull-down, LC-MS/MS
[3] = system: NdpA nucleoid-associated protein (38 kDa) (Vibrio cholerae A1552 (A1552-TntfoX)); experiment: DNA affinity pull-down, LC-MS/MS
[4] = system: VCA0767 (TetR family transcriptional regulator, 29 kDa) (Vibrio cholerae A1552 (A1552-TntfoX)); experiment: DNA affinity pull-down, LC-MS/MS
[5] = biological target: N-terminally Strep-tagII tagged wild-type QstR (Vibrio cholerae); experiment: SEC; analytical SEC, Superdex 200 10/300 GL; 100 mM Tris-HCl pH 8.0, 300 mM NaCl, 1 mM EDTA; 0.5 ml/min; size estimated from a standard curve of protein standards

With qstR pull-down probe the binding signal (total spectra) [1] was 185, the binding signal (total spectra) [2] was 26 and the binding signal (total spectra) [3] was 10. For the same substance, the binding signal (total spectra) [4] was 0.

Substance “N-terminally Strep-tagII tagged wild-type QstR (natural protein)” has a stoichiometry N [5] of 2.

Substance comEA pull-down probe has a binding signal (total spectra) [1] of 35, a binding signal (total spectra) [2] of 8 and a binding signal (total spectra) [3] of 8. For the same substance, the binding signal (total spectra) [4] was 5.

Work on gyrA pull-down probe yielded a binding signal (total spectra) [1] of 16, a binding signal (total spectra) [2] of 8 and a binding signal (total spectra) [3] of 6. The binding signal (total spectra) [4] was 0.
